Test results from article PMC8339350.
Where “and” joins values, the source holds several entries; their conditions need not be identical. Equal values may be shown once.

Columns and labels:
AKAP18 (Homo sapiens) = AKAP18 (Homo sapiens) (UniProt Q9P0M2); conditions: cited from earlier work
GST-AKAP18α (human) = assay: BLI; Octet RED96; anti-GST probes loaded with GST protein at 200 nM; room temperature; 50 mM Tris HCl, 200 mM NaCl, 5 mM DTT, 0.1% BSA, pH 8.0; steady-state analysis for KD
[1] = target: full-length SPA17 (sperm autoantigenic protein 17), human (human) (UniProt Q15506); assay: SEC-MALS; Wyatt system on Superdex 200 Increase 10/300; 20 mM Tris, pH 8, 200 mM NaCl, 5 mM DTT; 0.5 ml/min

Chain of RIIα (P13861 2-404): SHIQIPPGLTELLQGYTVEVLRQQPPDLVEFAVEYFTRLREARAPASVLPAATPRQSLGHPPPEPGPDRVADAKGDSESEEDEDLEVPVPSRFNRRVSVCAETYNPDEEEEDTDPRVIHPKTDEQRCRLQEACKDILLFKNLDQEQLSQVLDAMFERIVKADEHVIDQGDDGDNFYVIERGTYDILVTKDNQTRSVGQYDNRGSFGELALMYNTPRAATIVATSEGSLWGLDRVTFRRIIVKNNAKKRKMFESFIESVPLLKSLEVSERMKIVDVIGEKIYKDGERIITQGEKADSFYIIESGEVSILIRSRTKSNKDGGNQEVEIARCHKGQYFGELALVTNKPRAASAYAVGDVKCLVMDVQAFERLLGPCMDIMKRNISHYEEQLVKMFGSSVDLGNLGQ

For RIIα (from UniProt P13861), the Kd (AKAP18 (Homo sapiens)) is given as 31 nM.

Work on “SPA17 1 to 75-ROPN1L 1 to 75 heterodimer (from UniProt Q15506 1-75; Q96C74 1-75) (complex)” yielded a Kd (GST-AKAP18α (human)) of 82 nM.

For “full-length SPA17 (sperm autoantigenic protein 17), human (from UniProt Q15506 1-151) (natural protein)”, the stoichiometry N [1] was 4 and 2.
